According to PMC9270183 (The Journal of Experimental Medicine, 2022):
Substitutions are numbered along the chain they refer to.

B1: V016 (antibody, V domains shown)
VH: QVQLVESGGGVVQPGRSLRLSCAASGFTFSNYGMHWVRQAPGKGLEWVAVISYDGSNKYYADSVKGRFTISRDNSKNTLYLQMNSVRVEDTAVYYCAKGSFGYSYVHTYFDYWGQGTLVTVSS
VL: DIQMTQSPSTLSASVGDRVTITCRASQSISSWLAWYQQKPGKAPKLLIYDASSLESGVPSRFSGSGSGTEFILTISSLQPDDFATYYCQQYNSPMYTFGQGTKLEIK
notes: IgG; donor BRA13; source: recombinant monoclonal IgG, produced and purified as previously described
B2: V055 (antibody, V domains shown)
VH: QVQLVQSGAEVKKPGSSVKVSCKASGGTFSSYIINWVRQAPGQGLEWMGRIIPILGIANYAQKFHGRVTITADESTSTAYMELSSLRSEDTAVYYCARGGPDPSDSNYAALLYYYYMDVWGKGTTVTVSS
VL: QSVLTQPPSVSAAPGQKVTISCSGSSSNIGSYYVSWYQKLPGTAPKLLIHENNKRPSGIPDRISGSKSGTSATLGITGLQTGDEADYYCGTWDSSLSDVVFGGGTKLTVL
notes: IgG; donor BRA15; source: recombinant monoclonal IgG, produced and purified as previously described
B3: V014 (antibody, V domains shown)
VH: EVQLVESGGGLVQPGGSLRLSCAASGFTFSSYDMHWVRQATGKGLEWVSAIGTAGDTYYPGSVKGRFTISRENAKNSLYLQMNSLRAGDTAVYYCARGVITMVRGVIRDYYYYGMDVWGQGTTVTVSS
VL: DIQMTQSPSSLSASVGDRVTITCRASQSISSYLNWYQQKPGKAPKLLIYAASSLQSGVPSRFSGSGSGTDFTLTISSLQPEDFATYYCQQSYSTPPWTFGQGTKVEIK
notes: as for B1
B4: V057 (antibody, V domains shown)
VH: EVQLVESGGGLVQPGRSLRLSCAASGFTFGDYAMHWVRQAPGKGLEWVSGISWNSGIIGQADSVKGRFTISRDNAKNSLYLQMNSLRVEDTALYYCAKGGGESVEVPADEKLDYWGQGTLVTVSS
VL: QSVLTQPPSVSGAPGQRVTISCTGSSSNIGAGYDVHWYQQLPGTAPKLLIYGNNNRPSGVPDRFSGSKSGTSASLAITGLQAEDEADYYCQSYDSSLSGSWVFGGGTKLTVL
notes: as for B2
B5: V015 (antibody, V domains shown)
VH: EVQLVESGGGLVQPGGSLRLSCAASGFTFNSYWMSWVRQAPGKGLEWVANIKQDGSEKYYVDSVKGRFTISRDNAKNSLYLQMNSLRAEDTAVYYCARLPTYYSGFDYWGQGTLVTVSS
VL: NFMLTQPHSVSESPGKTVTISCTGSSGSIASNYVQWYQQRPGSAPTTVIYEDNQRPSGVPDRFSGSIDSSSNSASLTISGLKTEDEADYYCQSYDSTNRGVVFGGGTKLTVL
notes: as for B1
B6: V056 (antibody, V domains shown)
VH: QVQLVESGGGVVQPGRSLRLSCAASGFPFSNYGMHWVRQAPGKGLEWVAVISYDGSNKYYADSVKGRFTISRDNSKNTLYLQMNSLRAEDTALYYCAKDSRPLPAAMSTYYYYGVDVWGQGTTVTVSS
VL: not shown
notes: as for B2
B7: V060 (antibody, V domains shown)
VH: B6 VH with Q39R, S56L, S85R, L93V, L103V, A105G, V115M
VL: not shown
notes: as for B2
B8: V062 (antibody, V domains shown)
VH: QLQLQESGPGLVKPSETLSLTCTVSSGSISSSSYYWGWIRQPPGKGLEWIGSIYYSGSTYYNPSLKSRVTISVDTSKNQFSLKLSSVTAADTAVYYCARHWRENFAHAFDIWGQGTMVTVSS
VL: QSALTQPASVSGSPGQSITISCTGTSSDVGSYDLVSWFQQHPGKAPKLMIYEVTKRPSGVSNRFSGSKSGNTASLTISGLQAEDEADYYCCSYVGSSTYWVFGGGTKLTVL
notes: as for B2
B9: V017 (antibody, V domains shown)
VH: EVQLVESGGGLVQPGGSLRLSCVASGFTFSTYSMNWVRQAPGKGLEWVSYISSSSSTIYYADSVKGRFTISRDNAKSSLYLQMNSLRAEDTAVYYCASGLCGGDCPLTCWGQGTLVTVSS
VL: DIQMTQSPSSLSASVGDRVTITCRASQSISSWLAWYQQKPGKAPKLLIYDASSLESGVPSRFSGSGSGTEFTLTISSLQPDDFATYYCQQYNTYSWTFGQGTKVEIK
notes: as for B1
B10: V011 (antibody, V domains shown)
VH: QVQLVQSGAEVKKPGASVKVSCKASGYIFTSYDINWVRQATGQGLEWMGWMNPNSGNTGYAQKFQGRVTMTRNTSISTAYMELSSLRSEDTAVYYCARASSSLTYYFDYWGQGTLVTVSS
VL: SYELTQPPSVSVAPGKTARITCGENNIGSKSVHWYQQKPGQAPVLVVYDDSDRPSGIPERFSGSNSGNTATLTISRVEAGDEADYYCQVWDSSSDPVVFGGGTKLTVL
notes: as for B1
B11: V054 (antibody, V domains shown)
VH: QVQLVESGGGVVQPGRSLRLSCAASGFPFSSFGMHWVRQAPGKGLEWVAVISSDGSNKYYADSVKGRFTISRDNSKNTLYLQMNSLRAEDTAVYYCAKEFTYVVVTALWGTENFDIWGQGTMVTVSS
VL: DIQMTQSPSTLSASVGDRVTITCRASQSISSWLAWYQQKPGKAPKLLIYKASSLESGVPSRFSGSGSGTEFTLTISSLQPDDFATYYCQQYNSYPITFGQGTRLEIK
notes: as for B2
B12: V063 (antibody, V domains shown)
VH: B11 VH with L108F
VL: B1 VL with K45N, D50K, S53A, I72T, P94Y, M95P, Y96I, K103R
notes: as for B2
B13: V010 (antibody, V domains shown)
VH: QVQLQESGPGLVKPSETLSLTCTVSGGSISSYYWSWIRQPPGKGLEWIGYIYYNGSTNYNPSLKSRVTISLDTSKNQFSLKLSSVTAADTAVYYCASDYYDSSGYYYGFDYWGQGTLVTVSS
VL: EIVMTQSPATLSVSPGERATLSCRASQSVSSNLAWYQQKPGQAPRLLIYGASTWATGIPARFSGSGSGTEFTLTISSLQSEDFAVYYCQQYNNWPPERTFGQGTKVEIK
notes: as for B1
B14: V007 (antibody, V domains shown)
VH: QVQLVQSGAEVKKPGSSVKVSCKASGDTFSTYTISWVRQAPGQGLEWMGRIIPILGVGNYAQKFQGRVTITADKSTSTAYMELSSLRSEDTAVYYCAHTTPPGDAFDIWGQGTMVTVSS
VL: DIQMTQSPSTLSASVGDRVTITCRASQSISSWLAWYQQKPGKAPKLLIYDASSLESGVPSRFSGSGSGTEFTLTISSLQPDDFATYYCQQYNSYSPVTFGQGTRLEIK
notes: as for B1
B15: V009 (antibody, V domains shown)
VH: EVQLVQSGAEVKKPGESLKISCKGSGYRFTSYWIGWVRQMPGKGLEWMGIIYAGDSDTRYSPSFQGQVTISVDKSISTAYLQWSSLKASDTAMYYCATTMTTGYFDYWGQGTLVTVSS
VL: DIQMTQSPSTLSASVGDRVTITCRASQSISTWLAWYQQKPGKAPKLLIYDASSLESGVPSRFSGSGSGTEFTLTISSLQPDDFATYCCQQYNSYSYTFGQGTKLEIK
notes: as for B1
B16: V061 (antibody, V domains shown)
VH: QVQLVQSGAEVKKPGTSVKVSCKASGYTFKNYGISWVRQAPGQGLEWMGWISAHNGNTNYAQRVQGRVTMTTDTSTSTAYMELRSLRSEDTAVYYCGRESGVASHPGDLDYWGQGTLVTVSS
VL: SYELTQPPSVSVSPGQTARITCSGDALPRQYAYWYQQKPGQAPVLLIYKDSERPSGIPERFSGSSSGTTVTLTISGVQAEDEADYYCQSADSSVVFGGGAKLTVL
notes: as for B2
B17: V013 (antibody, V domains shown)
VH: QVQLVESGGGVVQPGRSLRLSCAGSGFIFSSFAMHWVRQAPGKGLEWVAVVSYDGDNKYYADSVKGRFTISRDNSKNTLYLQMDSLRPEDTAVYFCGRDEAALWIQRWYREIDFWGQGTLVTVSS
VL: QSVLTQPPSVSGTPGQRVTISCSGSSSNTGRNPVTWYQQFPGSAPKLLISRNNQRPSGVPDRFSGSKSGTSASLAISGLQSEDEADYYCAAWDDNLNGQVFGGGTKVTVL
notes: as for B1
B18: V064 (antibody, V domains shown)
VH: EVQLVESGGGLVQPGGSLRLSCAASGLTVSRNYMRWVRQAPGKGLEWVSLIYSGGSTFYGDSVKGRFTISRDNSKNTLYLQMNSLRAEDTAVYYCARDLVRDGMDVWGQGTTVTVSS
VL: EIVMTQSPATLSVSPGERATLSCRASQSVSSNLAWYQQKPGQAPRLLIYGASTRATGIPARFSGSGSGTEFTLTISSLQSEDFAVYYCQQYNNWTFGQGTKVEIK
notes: as for B2

Target: T1, 417N/484K/501Y RBD mutant (SARS-CoV-2, Wuhan-Hu-1 RBD backbone …, 417N | 484K | 501Y)
T1 construct: also called RBD KEN
Assay: BLI
Details: both partners purified

| Binder | Kd [nM] |
| --- | --- |
| B1 | 4.43 |
| B2 | 1.99 |
| B3 | 27.3 |
| B4 | 22 |
| B5 | 14.3 |
| B6 | 7.58 |
| B7 | 4.79 |
| B8 | 1.89 |
| B9 | 27.1 |
| B10 | 6.96 |
| B11 | 15.6 |
| B12 | 3.34 |
| B13 | 2.11 |
| B14 | 5.78 |
| B15 | 1.83 |
| B16 | 10.3 |
| B17 | 166 |
| B18 | 1.91 |
